Consider 5 molecules from article PMC9424271, “Invariant surface glycoprotein 65 of Trypanosoma brucei is a complement C3 receptor” (Nature Communications, 2022).

The term Kd denotes the constant that tells how readily two partners part at equilibrium. The low end stands for tighter binding, the high end for weaker binding. Usually koff stands for the rate constant with which the complex falls apart. A high value points to fast dissociation. By kon is commonly meant the rate constant with which the complex forms.

In assay [1] the target is ISG65 1125G (residues 24-385) with C-terminal AviTag and His10 tag, biotinylated (T. brucei EATRO1125). In words: SPR; biotinylated ISG65G (CHO, ~800 RU) on a streptavidin chip (SA); C3b and C3c from 500 nM in two-fold dilutions to 15.6 nM; 30 ul/min, 25 C, 20 mM HEPES pH 7.4, 150 mM NaCl, 0.005% TWEEN-20; C3b fitted to a two-state reaction model, C3c to a 1:1 Langmuir model.

Assay [2] has as its target ISG65 1125G (residues 24-385), expressed with kifunensine and deglycosylated with Endo Hf (T. brucei EATRO1125). In words: SPR; ISG65 1125G immobilised by amine coupling (345 RU) on a CM5 chip; C3d from 4 uM in two-fold serial dilutions; 30 ul/min, 25 C, 20 mM HEPES pH 7.4, 300 mM NaCl, 0.05% TWEEN-20; 1:1 Langmuir model.
Assay [3] addresses T1, Human complement C3b (human, UniProt P01024).
T1 construct: source: bought: Complement Technology
Put plainly: SPR; biotinylated ISG65G (CHO, ~800 RU) immobilised on a streptavidin chip (Series S SA); C3b and C3c from 500 nM in two-fold dilutions to 15.6 nM; 30 ul/min, 25 C, 20 mM HEPES pH 7.4, 150 mM NaCl, 0.005% TWEEN-20; C3b fitted to a two-state reaction model, C3c to the 1:1 Langmuir model; averages of three flow paths with different immobilisation levels. The settings on record: both partners purified. Background: Surface plasmon resonance follows binding to a sensor surface in real time, without labels.

The target of assay [4] is T2, Human complement C3c (human, UniProt P01024).
T2 construct: source: bought: Complement Technology; copies: + +
T2 sequence (P01024 23-667, chain 1 of 3): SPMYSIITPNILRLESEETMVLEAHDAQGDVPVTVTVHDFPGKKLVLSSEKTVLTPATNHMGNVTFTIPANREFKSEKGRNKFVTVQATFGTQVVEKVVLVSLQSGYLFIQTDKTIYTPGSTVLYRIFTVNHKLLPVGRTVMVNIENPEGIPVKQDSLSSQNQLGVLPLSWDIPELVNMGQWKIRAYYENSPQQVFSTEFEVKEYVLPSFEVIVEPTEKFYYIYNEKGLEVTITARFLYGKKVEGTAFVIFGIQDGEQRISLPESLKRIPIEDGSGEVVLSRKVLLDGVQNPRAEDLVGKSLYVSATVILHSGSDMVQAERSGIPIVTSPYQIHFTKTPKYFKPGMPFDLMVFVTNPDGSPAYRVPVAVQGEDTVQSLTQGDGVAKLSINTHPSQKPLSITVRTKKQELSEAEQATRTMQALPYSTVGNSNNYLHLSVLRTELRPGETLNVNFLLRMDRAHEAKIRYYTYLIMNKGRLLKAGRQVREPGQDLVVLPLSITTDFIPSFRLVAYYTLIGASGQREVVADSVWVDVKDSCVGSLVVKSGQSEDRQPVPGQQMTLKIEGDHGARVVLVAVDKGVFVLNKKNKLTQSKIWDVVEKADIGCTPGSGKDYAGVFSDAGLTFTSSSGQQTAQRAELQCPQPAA
T2 sequence (P01024 749-954, chain 2 of 3): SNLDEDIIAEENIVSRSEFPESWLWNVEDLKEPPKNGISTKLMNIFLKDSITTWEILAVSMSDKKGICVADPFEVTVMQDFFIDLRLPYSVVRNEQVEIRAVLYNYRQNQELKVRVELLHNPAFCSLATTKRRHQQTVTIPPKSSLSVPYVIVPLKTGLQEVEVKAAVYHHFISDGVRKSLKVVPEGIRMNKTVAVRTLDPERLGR
T2 sequence (P01024 1321-1663, chain 3 of 3): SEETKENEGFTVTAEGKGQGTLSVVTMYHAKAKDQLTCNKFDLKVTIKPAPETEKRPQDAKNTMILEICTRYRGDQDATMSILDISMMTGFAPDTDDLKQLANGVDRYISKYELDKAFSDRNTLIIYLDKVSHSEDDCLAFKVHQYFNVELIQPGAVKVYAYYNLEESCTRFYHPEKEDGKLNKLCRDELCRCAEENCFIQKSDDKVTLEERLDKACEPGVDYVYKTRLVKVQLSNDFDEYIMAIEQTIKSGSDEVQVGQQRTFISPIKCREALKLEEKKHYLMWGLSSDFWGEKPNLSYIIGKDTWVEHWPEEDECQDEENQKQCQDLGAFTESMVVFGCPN
Described as above. The settings on record: both partners purified.

The target in assay [5] is T3, Complement C3d (residues 996-1303 of H. sapiens C3, C1010A) (human, UniProt P01024 996-1303, C1010A).
T3 construct: also called C3d-WT; TED domain
T3 sequence (P01024 996-1303 C1010A): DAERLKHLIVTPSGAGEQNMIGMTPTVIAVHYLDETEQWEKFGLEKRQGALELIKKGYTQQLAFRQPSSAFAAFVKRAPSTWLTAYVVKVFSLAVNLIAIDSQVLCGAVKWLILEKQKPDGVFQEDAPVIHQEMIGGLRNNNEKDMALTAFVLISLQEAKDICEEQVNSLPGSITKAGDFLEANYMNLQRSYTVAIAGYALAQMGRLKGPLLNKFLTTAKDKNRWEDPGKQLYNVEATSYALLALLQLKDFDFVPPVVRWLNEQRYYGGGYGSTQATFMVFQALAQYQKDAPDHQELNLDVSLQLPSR
Put plainly: SPR; ISG65 1125G immobilised by amine coupling (345 RU) on a CM5 chip; C3d from 4 uM in two-fold dilutions; 30 ul/min, 25 C, 20 mM HEPES pH 7.4, 300 mM NaCl, 0.05% TWEEN-20; 1:1 Langmuir model; averages of three repeats on the same flow path. The settings on record: both partners purified.

T1 sequence (P01024 23-667, chain 1 of 2): as the sequence (P01024 23-667, chain 1 of 3) above
T1 sequence (P01024 749-1663, chain 2 of 2): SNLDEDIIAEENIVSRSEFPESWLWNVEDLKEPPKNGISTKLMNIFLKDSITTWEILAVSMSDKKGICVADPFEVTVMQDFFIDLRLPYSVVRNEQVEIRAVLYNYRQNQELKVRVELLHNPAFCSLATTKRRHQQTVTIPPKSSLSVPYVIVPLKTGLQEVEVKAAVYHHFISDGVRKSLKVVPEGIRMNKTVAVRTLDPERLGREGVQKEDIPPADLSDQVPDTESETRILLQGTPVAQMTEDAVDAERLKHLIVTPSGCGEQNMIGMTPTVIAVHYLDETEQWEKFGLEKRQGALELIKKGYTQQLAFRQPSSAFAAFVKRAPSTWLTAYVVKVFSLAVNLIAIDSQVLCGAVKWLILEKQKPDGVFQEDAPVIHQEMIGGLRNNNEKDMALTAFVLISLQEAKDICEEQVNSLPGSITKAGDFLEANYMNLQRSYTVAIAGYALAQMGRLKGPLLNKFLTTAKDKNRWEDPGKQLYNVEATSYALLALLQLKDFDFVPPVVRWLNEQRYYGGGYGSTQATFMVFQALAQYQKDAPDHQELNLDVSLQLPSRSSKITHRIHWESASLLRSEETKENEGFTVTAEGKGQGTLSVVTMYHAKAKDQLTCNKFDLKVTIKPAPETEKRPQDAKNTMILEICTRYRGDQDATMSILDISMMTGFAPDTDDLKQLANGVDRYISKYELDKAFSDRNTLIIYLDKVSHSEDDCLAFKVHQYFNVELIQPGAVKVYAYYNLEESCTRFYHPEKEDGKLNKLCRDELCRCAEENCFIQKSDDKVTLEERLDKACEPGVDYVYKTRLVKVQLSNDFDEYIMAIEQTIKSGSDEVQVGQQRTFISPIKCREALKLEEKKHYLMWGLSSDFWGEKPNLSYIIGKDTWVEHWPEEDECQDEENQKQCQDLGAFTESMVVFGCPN

In assay [1], “human complement C3c (domain or fragment)” yielded a Kd of 750 nM.
The same measure, in the same setting: the result for “human complement C3b (from UniProt P01024 749-1663) (domain or fragment)” reads 40 nM.
“human complement C3d (C3 residues 996-1303, C1010A) (from UniProt P01024 996-1303) (domain or fragment)” registered a Kd in assay [2] of 602 nM.

B1: ISG65 1125G (residues 24-385), biotinylated (domain or fragment)
chain: EDNRVPGDKNLTKEGAAALCKMKHLADKVAEKRSQELKDRTQNFAGYIEFELYRIDYWLEKLNGPKGRKDGYAKLSDSDIEKVKEIFDKAKDGIAKQLPEAKKAGEDAEKLHTEVKEAAANARGQDLDDHKQKSTGLYRVLNWYCITKEESHNATPNCDGIQFRNHYLSVNRSAIDCSSTGYEENYDWSANALQVALNSWENVKPKKLESAGSDENCNIGQSSESHPCTMTEEWQTHYKETVKKLKELEGAHEKGRRAHDAMLGYANTAYAVNTKVEQEKPLAEVIAAAKEAGKKGAKIIIPAAAPVTPTNSTKNEDSAPTEHVDRGIATNETQVEVGIDADFDGLLEAAEAAEVTRRHQKTGSGSGSASG
modifications: biotin on the AviTag
notes: also called ISG65G; ISG65 E1125G
B1 registered a Kd in assay [3] of 67 nM. In assay [4], the Kd was determined as 391 nM, the koff turned out to be 0.008 s⁻¹ and the kon was 20000 M⁻¹ s⁻¹.

B2: ISG65 1125G (residues 24-385), expressed with kifunensine and treated with Endo Hf (domain or fragment)
chain: EDNRVPGDKNLTKEGAAALCKMKHLADKVAEKRSQELKDRTQNFAGYIEFELYRIDYWLEKLNGPKGRKDGYAKLSDSDIEKVKEIFDKAKDGIAKQLPEAKKAGEDAEKLHTEVKEAAANARGQDLDDHKQKSTGLYRVLNWYCITKEESHNATPNCDGIQFRNHYLSVNRSAIDCSSTGYEENYDWSANALQVALNSWENVKPKKLESAGSDENCNIGQSSESHPCTMTEEWQTHYKETVKKLKELEGAHEKGRRAHDAMLGYANTAYAVNTKVEQEKPLAEVIAAAKEAGKKGAKIIIPAAAPVTPTNSTKNEDSAPTEHVDRGIATNETQVEVGIDADFDGLLEAAEAAEVTRRHQKTGSGSGSASG
notes: also called ISG65G
In assay [5], B2 came in with a Kd of 514 nM, a dissociation rate constant (koff) of 0.1 s⁻¹ and a kon of 300000 M⁻¹ s⁻¹.
